Laboratory results from paper PMC10920880, “RNA compaction and iterative scanning for small RNA targets by the Hfq chaperone”.

B1: (AAC)4-S6-N35-S6 tandem mRNA on DNA tether (mixed)
RNA: GGACUCUAUCGAGUCCAACAACAACAACAGACCUCUCUACCAUCACCUAAACUUUACUCUACCAUCACCAGACCUCGCGCCCAGGACGACACACUUUGGACAGGACACACAGGACACAGG
DNA: CCTGTGTCCTGTGTGTCCTGTCCAAAGTGTGTCGTCC
B2: (AAC)6-Cy5-N35-S6 mRNA on DNA tether (mixed)
RNA: GGACUCUAUCGAGUCCAACAACAACAACAACAACCCCUGCAUCACCUAAACUUUACUCUACCAUCACCAGACCUCGCGCCCAGGACGACACACUUUGGACAGGACACACAGGACACAGG
DNA: B1 DNA
modifications: internal Cy5 after nt 35

Assays:
[1] = molecular target: T1, Hfq:R16A (rim mutant) (Escherichia coli K12, UniProt P0A6X3 1-102, R16A); assay: smFRET; sRNA (N13)-Hfq; half as much time on distant site as WT; smFRET: 10 mM Tris-HCl pH 7.5, 50 mM NaCl, 50 mM KCl, 4 mM Trolox, 0.01% Nikkol, 0.8% glucose, RNasin, oxygen scavenger; EMSA: 1x TNK, 5% glycerol, 15 min RT, native 8% PAGE 1x TBE 4 C; conditions: protein: recombinant; tags: none (untagged); chain copies: 6; label: tether 5' biotin, 3' Cy5; RNA 3' extension paired to DNA tether; 5' hairpin
[2] = molecular target: Hfq:Y25D (distal face mutant) (Escherichia coli K12, UniProt P0A6X3 1-102, Y25D); assay: smFRET; 5 nM Y25D, compaction E~0.75; smFRET: 10 mM Tris-HCl pH 7.5, 50 mM NaCl, 50 mM KCl, 4 mM Trolox, 0.01% Nikkol, 0.8% glucose, RNasin, oxygen scavenger; EMSA: 1x TNK, 5% glycerol, 15 min RT, native 8% PAGE 1x TBE 4 C; conditions: protein: recombinant; tags: none (untagged); chain copies: 6; label: internal Cy5; tether 5' biotin, 3' Cy3 (unlabeled tether for sRNA assays); RNA 3' extension paired to DNA tether; 5' hairpin
[3] = molecular target: Hfq:TM (triple rim mutant) (Escherichia coli K12, UniProt P0A6X3 1-102, R16A;R17A;R19D); assay: smFRET; 5 nM TM, less compaction E~0.37; smFRET: 10 mM Tris-HCl pH 7.5, 50 mM NaCl, 50 mM KCl, 4 mM Trolox, 0.01% Nikkol, 0.8% glucose, RNasin, oxygen scavenger; EMSA: 1x TNK, 5% glycerol, 15 min RT, native 8% PAGE 1x TBE 4 C; conditions: protein: recombinant; tags: none (untagged); chain copies: 6; label: internal Cy5; tether 5' biotin, 3' Cy3 (unlabeled tether for sRNA assays); RNA 3' extension paired to DNA tether; 5' hairpin
[4] = molecular target: T1, Hfq:R16A (rim mutant); assay: smFRET; 5 nM R16A, less compaction E~0.43; smFRET: 10 mM Tris-HCl pH 7.5, 50 mM NaCl, 50 mM KCl, 4 mM Trolox, 0.01% Nikkol, 0.8% glucose, RNasin, oxygen scavenger; EMSA: 1x TNK, 5% glycerol, 15 min RT, native 8% PAGE 1x TBE 4 C; conditions: protein: recombinant; tags: none (untagged); chain copies: 6; label: internal Cy5; tether 5' biotin, 3' Cy3 (unlabeled tether for sRNA assays); RNA 3' extension paired to DNA tether; 5' hairpin

Binder	binding result [1]	binding result [2]	binding result [3]	binding result [4]
B1	binds			
B2		binds	binds	binds
